Measurements as given in patent US20150104466A1 (WISCONSIN ALUMNI RESEARCH FOUNDATION, published 2015).
Values joined by “and” are separate entries in the source; they are usually repeats but may differ in a detail not shown here. Equal entries are not always repeated.

What was measured:
β3 integrin = target: T1, β3 integrin (human, UniProt P05106 27-788); experiment: His-tag pull-down on nickel beads from NHDF lysate, Western blot for β3 integrin
T1 construct: also called β3 integrins

β1 integrin = β1 integrin (human, UniProt P05556 21-798); experiment: cell-based or functional assay
β1 integrin, sequence (P05556 21-798): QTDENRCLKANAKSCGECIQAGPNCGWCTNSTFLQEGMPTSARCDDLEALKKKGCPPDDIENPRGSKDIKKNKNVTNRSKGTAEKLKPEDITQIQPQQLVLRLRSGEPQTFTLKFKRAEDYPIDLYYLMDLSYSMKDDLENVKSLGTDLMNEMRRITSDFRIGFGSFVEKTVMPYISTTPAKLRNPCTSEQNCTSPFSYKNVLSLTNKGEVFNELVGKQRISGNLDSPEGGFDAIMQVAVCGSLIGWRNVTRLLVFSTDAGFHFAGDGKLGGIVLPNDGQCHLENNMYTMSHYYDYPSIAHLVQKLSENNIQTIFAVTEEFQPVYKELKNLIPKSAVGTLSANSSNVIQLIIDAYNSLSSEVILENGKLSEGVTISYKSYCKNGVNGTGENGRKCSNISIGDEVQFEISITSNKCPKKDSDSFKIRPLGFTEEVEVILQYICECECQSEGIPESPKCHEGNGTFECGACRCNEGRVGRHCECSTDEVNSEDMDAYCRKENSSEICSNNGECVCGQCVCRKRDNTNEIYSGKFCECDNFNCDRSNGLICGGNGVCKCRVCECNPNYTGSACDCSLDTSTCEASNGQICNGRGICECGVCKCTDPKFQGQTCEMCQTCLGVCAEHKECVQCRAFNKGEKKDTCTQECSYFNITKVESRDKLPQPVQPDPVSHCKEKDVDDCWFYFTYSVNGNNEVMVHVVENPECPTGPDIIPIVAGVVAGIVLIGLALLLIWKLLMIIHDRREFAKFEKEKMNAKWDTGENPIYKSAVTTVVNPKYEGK

T1 sequence (P05106 27-788 limits assumed): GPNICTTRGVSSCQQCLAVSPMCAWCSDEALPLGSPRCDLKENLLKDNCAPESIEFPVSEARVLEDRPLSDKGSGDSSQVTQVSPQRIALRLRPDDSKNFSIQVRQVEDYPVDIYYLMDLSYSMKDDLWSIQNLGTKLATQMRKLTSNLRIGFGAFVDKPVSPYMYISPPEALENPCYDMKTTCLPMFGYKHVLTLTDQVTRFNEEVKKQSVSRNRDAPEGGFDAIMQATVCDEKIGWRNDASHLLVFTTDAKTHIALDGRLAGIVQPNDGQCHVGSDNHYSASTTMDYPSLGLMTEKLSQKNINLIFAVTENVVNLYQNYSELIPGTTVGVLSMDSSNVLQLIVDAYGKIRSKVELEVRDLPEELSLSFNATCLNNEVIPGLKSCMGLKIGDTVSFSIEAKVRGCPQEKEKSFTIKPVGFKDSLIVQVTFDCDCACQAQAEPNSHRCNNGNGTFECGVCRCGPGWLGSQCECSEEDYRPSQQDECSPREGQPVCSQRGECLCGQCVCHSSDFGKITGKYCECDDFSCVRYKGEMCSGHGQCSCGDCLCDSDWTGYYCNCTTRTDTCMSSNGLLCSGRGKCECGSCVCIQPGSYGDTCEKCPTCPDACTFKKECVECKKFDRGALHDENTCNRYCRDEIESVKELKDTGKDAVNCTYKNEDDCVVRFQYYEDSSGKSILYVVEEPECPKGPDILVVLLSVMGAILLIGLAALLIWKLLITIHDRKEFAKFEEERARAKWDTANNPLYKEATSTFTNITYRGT

B1: HCMV AD169 glycoprotein B disintegrin-like domain (amino acids 57-146), His-tagged, expressed in E. coli (other)
chain: VTSSEAVSHRANETIYNTTLKYGDVVGVNTTKYPYRVCSMAQGTDLIRFERNIICTSMKPINEDLDEGIMVVYKRNIVAHTFKVRVYQKV
notes: range 57-146; also called gBDLD; gBDLD fragment; not shown: N-terminal His-Tag with thrombin cleavage site from vector pET-28a
Q: Does B1 bind (β3 integrin)?
A: Result: no binding (tested: 20 µg gBDLD in 350 µL cell lysate)

Q: And the “IC50 for HCMV neutralization (HCMV-GFP infectivity of NHDFs, flow cytometry)” value (β1 integrin)?
A: Its value is 20.5 µg/mL and 1.96 µM.
